Measured values as given in patent publication US20090117551.

Assays:
[1] = test system: GFP-caspase-3 recognition peptide inserted modified protein
[2] = test system: GFP-trypsin recognition peptide inserted modified protein

Substance	FRET between quantum dot and GFP after protease treatment (30 C, 120 minutes) [1]	peak wavelength of fluorescence intensity [1]	FRET between quantum dot and GFP after protease treatment (37 C, 120 minutes) [2]	FRET waveform pattern, simultaneous DNase/trypsin assay (QD565 with GFP of FIG. 5A) [2]	peak wavelength of fluorescence intensity [2]
Caspase-3 (Medical & Biological Laboratories)	the disappearance of FRET was observed	shifted from 510 nm (untreated with trypsin) to 506 nm (treated with trypsin)			
Trypsin			the disappearance of FRET was observed	it was observed that the peak around 510 nm shifted	shifted from 513 nm (untreated with trypsin) to 508 nm (treated with trypsin)
